# Experimental data from patent publication US20250034271A1 (EUCURE BEIJING BIOPHARMA, published 2025).
# Where a chain is given by its changes, count along the chain named.
# B1: 4H6-H3K2-IgG4 (antibody, V domains shown)
# VH: EVQLQESGPGLVKPSQTLSLTCTVSGDSVSSGYWNWIRKHPGKKLEYMGFISYSGSTYYTPSLKSRITISRDTSKNQFSLKLSSVTAADTAVYFCARFRRYDDGVDYWGQGTLVTVSS
# VL: DIQMTQSPSAMSASVGDRVTITCRASHEISGYLSWIQQKPGGTIKRLINAASTLASGVPSRFSGSRSGTEFTLTISSLQPEDFADYYCLQYSSYPWTFGGGTKLEIK
# notes: Humanized
# B2: 4H6-H4K2-IgG4 (antibody, V domains shown)
# VH: B1 VH with H40F
# VL: B1 VL
# notes: Humanized
# B3: 6A7-H4K2-IgG4 (antibody, V domains shown)
# VH: QVQLVQSGAEVKKPGASVKLSCKASGYTFISYYIYWVKQAPGQGLEWIGGINPRNGGTNFNEKFKSRATLTVDTSISTAYMELSRLRSEDTAVYYCTRHGNGVYWGQGTTLTVSS
# VL: DVVMTQSPLSLPVTLGQPASISCRSSQSLLHSNGNTYLHWYQQRPGQSPNHLIYQVSNRFSGVPDRFSGSGSGTDFTLKISRVEAEDVGVYFCSQTTHVPWTFGGGTKVEIK
# notes: Humanized
# B4: 6A7-H3K3-IgG4 (antibody, V domains shown)
# VH: B3 VH with L20V, K38R, L111V
# VL: B3 VL with Q17D, V109L
# notes: Humanized
# B5: 6A7-mHvKv-IgG4 (antibody, V domains shown)
# VH: QVQLQQPGAELVKPGASVKLSCKASGYTFISYYIYWVKQRPGQGLEWIGGINPRNGGTNFNEKFKSKATLTVDKSSSTAYMQLSSLTSEDSAVYYCTRHGNGVYWGQGTTLTVSS
# VL: B3 VL with S7T, T14S, Q17D, P18Q, Q42L, R44K, V88L, V109L
# notes: Chimeric; also called chimeric anti-hCD40 antibody 6A7-mHvKv-IgG4
# B6: 6A7-H2K2-IgG4 (antibody, V domains shown)
# VH: B3 VH with L20V, K38R, T97A, L111V
# VL: B3 VL
# notes: Humanized
# B7: 6A7-H3K1-IgG4 (antibody, V domains shown)
# VH: B3 VH with L20V, K38R, L111V
# VL: B3 VL with Y41F, N50R, F92Y
# notes: Humanized
# B8: 6A7-H1K2-IgG4 (antibody, V domains shown)
# VH: B3 VH with L20V, K38R, I48M, A68V, T97A, L111V
# VL: B3 VL
# notes: Humanized
# B9: 6A7-H4K1-IgG4 (antibody, V domains shown)
# VH: B3 VH
# VL: B3 VL with Y41F, N50R, F92Y
# notes: Humanized
# B10: 6A7-H2K3-IgG4 (antibody, V domains shown)
# VH: B3 VH with L20V, K38R, T97A, L111V
# VL: B3 VL with Q17D, V109L
# notes: Humanized
# B11: 6A7-H2K1-IgG4 (antibody, V domains shown)
# VH: B3 VH with L20V, K38R, T97A, L111V
# VL: B3 VL with Y41F, N50R, F92Y
# notes: Humanized
# B12: 6A7-H1K3-IgG4 (antibody, V domains shown)
# VH: B3 VH with L20V, K38R, I48M, A68V, T97A, L111V
# VL: B3 VL with Q17D, V109L
# notes: Humanized
# B13: 6A7-H4K3-IgG4 (antibody, V domains shown)
# VH: B3 VH
# VL: B3 VL with Q17D, V109L
# notes: Humanized
# B14: 6A7-H1K1-IgG4 (antibody, V domains shown)
# VH: B3 VH with L20V, K38R, I48M, A68V, T97A, L111V
# VL: B3 VL with Y41F, N50R, F92Y
# notes: Humanized
# B15: 6A7-H3K2-IgG4 (antibody, V domains shown)
# VH: B3 VH with L20V, K38R, L111V
# VL: B3 VL
# notes: Humanized
# B16: 4H6-mHvKv-IgG1 (antibody, V domains shown)
# VH: EVKLQESGPSLVKPSQTLSLTCSVTGDSVSSGYWNWIRKFPGNKLEYMGFISYSGSTYYTPSLKSRISITRDTSKNQFYLQLNSVTTEDTATYFCARFRRYDDGVDYWGQGTTLTVSS
# VL: DIQMTQSPSSLSASLGERVSLTCRASHEISGYLSWIQQKPDGTIKRLINAASTLASGVPKRFSGSRSGSEYSLTINSLESEDFADYYCLQYSSYPWTFGGGTKLEIK
# notes: Chimeric
# Molecular target: T1, Histidine-tagged mfCD40 protein (mfCD40-His), Macaca fascicularis (Macaca fascicularis, UniProt G7PG38 21-193)
# T1 construct: not shown: histidine tag
# Assay: SPR, Biacore T200; antibody on Protein A chip, mfCD40-His injected; 1:1 fit
# Description: The binding affinity of the anti-hCD40 antibodies with mfCD40 (Macaca fascicularis) were measured using surface plasmon resonance (SPR) using Biacore (Biacore, INC, Piscataway N.J.) T200 biosensor equipped with pre-immobilized Protein A sensor chips.
# Anti-hCD40 antibodies were purified. The antibodies (0.5 μg/mL) were injected into Biacore T200 biosensor at 10 μL/min for about 18-26 seconds to achieve to a desired protein density (about 44-58 response units (RU)). […] Dissociation was monitored for 300-600 seconds. The chip was regenerated after the last injection of each titration with Glycine (pH 2.0, 30 μL/min for 12 seconds).
Kd,koff,kon,Binder
33.6 nM,0.0192 s⁻¹,570000 M⁻¹ s⁻¹,B1
29.7 nM,0.0169 s⁻¹,568000 M⁻¹ s⁻¹,B2
3.96 nM,0.000787 s⁻¹,199000 M⁻¹ s⁻¹,B3
0.871 nM,0.000201 s⁻¹,231000 M⁻¹ s⁻¹,B4

# Molecular target: T2, Histidine-tagged human CD40 protein (hCD40-His) (human, UniProt P25942 21-193)
# T2 construct: not shown: histidine tag
# Assay: SPR, Biacore T200; antibody on Protein A chip, hCD40-His injected; 1:1 fit
# Description: The binding affinity of the anti-hCD40 antibodies were measured using surface plasmon resonance (SPR) using Biacore (Biacore, INC, Piscataway N.J.) T200 biosensor equipped with pre-immobilized Protein A sensor chips.
# Anti-hCD40 antibodies were collected by transfecting CHO-S cells and then purified. The antibodies (1 μg/mL) were injected into Biacore T200 biosensor at 10 μL/min for about 24-33 seconds to achieve to a desired protein density (about 44-57 response units (RU)). […] Dissociation was monitored for 300 seconds. The chip was regenerated after the last injection of each titration with Glycine (pH 2.0, 30 μL/min for 12 seconds).
# T2 sequence (P25942 21-193 limits assumed): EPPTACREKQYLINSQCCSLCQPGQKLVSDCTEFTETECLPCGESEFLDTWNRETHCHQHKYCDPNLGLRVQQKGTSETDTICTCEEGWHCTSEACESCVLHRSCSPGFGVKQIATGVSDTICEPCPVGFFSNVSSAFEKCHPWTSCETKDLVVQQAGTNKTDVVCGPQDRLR
Kd,koff,kon,Binder
53.6 nM,0.0215 s⁻¹,401000 M⁻¹ s⁻¹,B1
48.7 nM,0.0191 s⁻¹,392000 M⁻¹ s⁻¹,B2
2.6 nM,0.000259 s⁻¹,99400 M⁻¹ s⁻¹,B5
189 nM,0.00496 s⁻¹,26300 M⁻¹ s⁻¹,B6
3.06 nM,0.000322 s⁻¹,105000 M⁻¹ s⁻¹,B3
20.8 nM,0.000574 s⁻¹,27600 M⁻¹ s⁻¹,B7
187 nM,0.00386 s⁻¹,20600 M⁻¹ s⁻¹,B8
23.9 nM,0.000572 s⁻¹,23900 M⁻¹ s⁻¹,B9
111 nM,0.00505 s⁻¹,45300 M⁻¹ s⁻¹,B10
298 nM,0.00708 s⁻¹,23700 M⁻¹ s⁻¹,B11
136 nM,0.0039 s⁻¹,28700 M⁻¹ s⁻¹,B12
3.49 nM,0.000373 s⁻¹,107000 M⁻¹ s⁻¹,B13
2.9 nM,0.000356 s⁻¹,123000 M⁻¹ s⁻¹,B4
280 nM,0.00571 s⁻¹,20400 M⁻¹ s⁻¹,B14
5.74 nM,0.000371 s⁻¹,64600 M⁻¹ s⁻¹,B15
36.5 nM,0.0205 s⁻¹,561000 M⁻¹ s⁻¹,B16
